From US20190338009A1 (ZEALAND PHARMA A S, published 2019) come the findings set out here.

B1: Compound 10 (peptide)
peptide: H-H[Aib]EGTFTSELSTILDEQAARDFIAWLIAHKITD-OH
SMILES: CC[C@H](C)[C@H](NC(=O)[C@H](CC(C)C)NC(=O)[C@H](Cc1c[nH]c2ccccc12)NC(=O)[C@H](C)NC(=O)[C@@H](NC(=O)[C@H](Cc1ccccc1)NC(=O)[C@H](CC(=O)O)NC(=O)[C@H](CCCNC(=N)N)NC(=O)[C@H](C)NC(=O)[C@H](C)NC(=O)[C@H](CCC(N)=O)NC(=O)[C@H](CCC(=O)O)NC(=O)[C@H](CC(=O)O)NC(=O)[C@H](CC(C)C)NC(=O)[C@@H](NC(=O)[C@@H](NC(=O)[C@H](CO)NC(=O)[C@H](CC(C)C)NC(=O)[C@H](CCC(=O)O)NC(=O)[C@H](CO)NC(=O)[C@@H](NC(=O)[C@H](Cc1ccccc1)NC(=O)[C@@H](NC(=O)CNC(=O)[C@H](CCC(=O)O)NC(=O)C(C)(C)NC(=O)[C@@H](N)Cc1c[nH]cn1)[C@@H](C)O)[C@@H](C)O)[C@@H](C)O)[C@@H](C)CC)[C@@H](C)CC)C(=O)N[C@@H](C)C(=O)N[C@@H](Cc1c[nH]cn1)C(=O)N[C@@H](CCCCN)C(=O)N[C@H](C(=O)N[C@H](C(=O)N[C@@H](CC(=O)O)C(=O)O)[C@@H](C)O)[C@@H](C)CC
B2: Compound 9 (peptide)
peptide: H-H[Aib]EGTFTDELATILDEQAARDFIAWLIAHKITD-OH
SMILES: CC[C@H](C)[C@H](NC(=O)[C@H](CC(C)C)NC(=O)[C@H](Cc1c[nH]c2ccccc12)NC(=O)[C@H](C)NC(=O)[C@@H](NC(=O)[C@H](Cc1ccccc1)NC(=O)[C@H](CC(=O)O)NC(=O)[C@H](CCCNC(=N)N)NC(=O)[C@H](C)NC(=O)[C@H](C)NC(=O)[C@H](CCC(N)=O)NC(=O)[C@H](CCC(=O)O)NC(=O)[C@H](CC(=O)O)NC(=O)[C@H](CC(C)C)NC(=O)[C@@H](NC(=O)[C@@H](NC(=O)[C@H](C)NC(=O)[C@H](CC(C)C)NC(=O)[C@H](CCC(=O)O)NC(=O)[C@H](CC(=O)O)NC(=O)[C@@H](NC(=O)[C@H](Cc1ccccc1)NC(=O)[C@@H](NC(=O)CNC(=O)[C@H](CCC(=O)O)NC(=O)C(C)(C)NC(=O)[C@@H](N)Cc1c[nH]cn1)[C@@H](C)O)[C@@H](C)O)[C@@H](C)O)[C@@H](C)CC)[C@@H](C)CC)C(=O)N[C@@H](C)C(=O)N[C@@H](Cc1c[nH]cn1)C(=O)N[C@@H](CCCCN)C(=O)N[C@H](C(=O)N[C@H](C(=O)N[C@@H](CC(=O)O)C(=O)O)[C@@H](C)O)[C@@H](C)CC
B3: Compound 8 (peptide)
peptide: H-H[Aib]EGSFTSELATILDEQAARDFIAWLILHKITD-OH
SMILES: CC[C@H](C)[C@H](NC(=O)[C@H](Cc1ccccc1)NC(=O)[C@H](CC(=O)O)NC(=O)[C@H](CCCNC(=N)N)NC(=O)[C@H](C)NC(=O)[C@H](C)NC(=O)[C@H](CCC(N)=O)NC(=O)[C@H](CCC(=O)O)NC(=O)[C@H](CC(=O)O)NC(=O)[C@H](CC(C)C)NC(=O)[C@@H](NC(=O)[C@@H](NC(=O)[C@H](C)NC(=O)[C@H](CC(C)C)NC(=O)[C@H](CCC(=O)O)NC(=O)[C@H](CO)NC(=O)[C@@H](NC(=O)[C@H](Cc1ccccc1)NC(=O)[C@H](CO)NC(=O)CNC(=O)[C@H](CCC(=O)O)NC(=O)C(C)(C)NC(=O)[C@@H](N)Cc1c[nH]cn1)[C@@H](C)O)[C@@H](C)O)[C@@H](C)CC)C(=O)N[C@@H](C)C(=O)N[C@@H](Cc1c[nH]c2ccccc12)C(=O)N[C@@H](CC(C)C)C(=O)N[C@H](C(=O)N[C@@H](CC(C)C)C(=O)N[C@@H](Cc1c[nH]cn1)C(=O)N[C@@H](CCCCN)C(=O)N[C@H](C(=O)N[C@H](C(=O)N[C@@H](CC(=O)O)C(=O)O)[C@@H](C)O)[C@@H](C)CC)[C@@H](C)CC
B4: Compound 12 (peptide)
peptide: H-H[Aib]EGTFTSELATILDEQAARDFIAWLHAHKITD-OH
SMILES: CC[C@H](C)[C@H](NC(=O)[C@H](Cc1ccccc1)NC(=O)[C@H](CC(=O)O)NC(=O)[C@H](CCCNC(=N)N)NC(=O)[C@H](C)NC(=O)[C@H](C)NC(=O)[C@H](CCC(N)=O)NC(=O)[C@H](CCC(=O)O)NC(=O)[C@H](CC(=O)O)NC(=O)[C@H](CC(C)C)NC(=O)[C@@H](NC(=O)[C@@H](NC(=O)[C@H](C)NC(=O)[C@H](CC(C)C)NC(=O)[C@H](CCC(=O)O)NC(=O)[C@H](CO)NC(=O)[C@@H](NC(=O)[C@H](Cc1ccccc1)NC(=O)[C@@H](NC(=O)CNC(=O)[C@H](CCC(=O)O)NC(=O)C(C)(C)NC(=O)[C@@H](N)Cc1c[nH]cn1)[C@@H](C)O)[C@@H](C)O)[C@@H](C)O)[C@@H](C)CC)C(=O)N[C@@H](C)C(=O)N[C@@H](Cc1c[nH]c2ccccc12)C(=O)N[C@@H](CC(C)C)C(=O)N[C@@H](Cc1c[nH]cn1)C(=O)N[C@@H](C)C(=O)N[C@@H](Cc1c[nH]cn1)C(=O)N[C@@H](CCCCN)C(=O)N[C@H](C(=O)N[C@H](C(=O)N[C@@H](CC(=O)O)C(=O)O)[C@@H](C)O)[C@@H](C)CC
B5: Compound 11 (peptide)
peptide: H-H[Aib]EGTFTSELATILDGKAARDFIAWLIAHKITD-OH
SMILES: CC[C@H](C)[C@H](NC(=O)[C@H](CC(C)C)NC(=O)[C@H](Cc1c[nH]c2ccccc12)NC(=O)[C@H](C)NC(=O)[C@@H](NC(=O)[C@H](Cc1ccccc1)NC(=O)[C@H](CC(=O)O)NC(=O)[C@H](CCCNC(=N)N)NC(=O)[C@H](C)NC(=O)[C@H](C)NC(=O)[C@H](CCCCN)NC(=O)CNC(=O)[C@H](CC(=O)O)NC(=O)[C@H](CC(C)C)NC(=O)[C@@H](NC(=O)[C@@H](NC(=O)[C@H](C)NC(=O)[C@H](CC(C)C)NC(=O)[C@H](CCC(=O)O)NC(=O)[C@H](CO)NC(=O)[C@@H](NC(=O)[C@H](Cc1ccccc1)NC(=O)[C@@H](NC(=O)CNC(=O)[C@H](CCC(=O)O)NC(=O)C(C)(C)NC(=O)[C@@H](N)Cc1c[nH]cn1)[C@@H](C)O)[C@@H](C)O)[C@@H](C)O)[C@@H](C)CC)[C@@H](C)CC)C(=O)N[C@@H](C)C(=O)N[C@@H](Cc1c[nH]cn1)C(=O)N[C@@H](CCCCN)C(=O)N[C@H](C(=O)N[C@H](C(=O)N[C@@H](CC(=O)O)C(=O)O)[C@@H](C)O)[C@@H](C)CC

Square brackets hold non-standard residues; d marks the D form. Aib = CC(C)(N)C(=O)O

For one assay, the target named is human glucagon-like peptide 1 receptor (GLP-1R) (human, UniProt P43220 24-463). Description: cell-based or functional assay.
As to B1, the “EC50 GLP-1 (nM); cAMP AlphaScreen, HEK293 cells expressing human GLP-1R” value (“EC50 GLP-1 (nM); cAMP AlphaScreen” below) amounted to 0.005 nM.

As to B2, the “EC50 GLP-1 (nM); cAMP AlphaScreen” value was determined as 0.007 nM.

For B3, the “EC50 GLP-1 (nM); cAMP AlphaScreen” value amounted to 0.021 nM.

Turning to B4, the “EC50 GLP-1 (nM); cAMP AlphaScreen” value came to 0.055 nM.

For B5, the “EC50 GLP-1 (nM); cAMP AlphaScreen” value worked out at 0.011 nM.

In another assay the target is T1, human GLP-2 receptor (hGLP2-R) (human, UniProt O95838 1-553).
T1 sequence (looked up): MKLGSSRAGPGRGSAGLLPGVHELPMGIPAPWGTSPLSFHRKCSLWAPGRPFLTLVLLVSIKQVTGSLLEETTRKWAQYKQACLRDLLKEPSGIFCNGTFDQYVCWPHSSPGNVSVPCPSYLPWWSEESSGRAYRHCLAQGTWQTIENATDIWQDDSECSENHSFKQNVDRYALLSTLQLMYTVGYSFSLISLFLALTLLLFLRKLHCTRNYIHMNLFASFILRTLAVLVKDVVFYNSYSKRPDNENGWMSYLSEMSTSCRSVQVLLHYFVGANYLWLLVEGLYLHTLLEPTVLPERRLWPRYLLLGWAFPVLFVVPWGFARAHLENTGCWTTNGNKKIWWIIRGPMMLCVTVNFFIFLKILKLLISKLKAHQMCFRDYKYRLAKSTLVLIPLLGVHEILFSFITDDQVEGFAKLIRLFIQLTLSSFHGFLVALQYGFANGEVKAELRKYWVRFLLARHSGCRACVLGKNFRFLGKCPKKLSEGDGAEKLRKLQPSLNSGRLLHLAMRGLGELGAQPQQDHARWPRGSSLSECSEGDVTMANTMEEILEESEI
Description: cell-based or functional assay.
In the case of B1, the “EC50 GLP-2 (nM); cAMP AlphaScreen, HEK293 cells expressing human GLP-2R” value (shortened to “EC50 GLP-2 (nM); cAMP AlphaScreen”) was found to be 0.05 nM.

As to B2, the “EC50 GLP-2 (nM); cAMP AlphaScreen” value was determined as 0.041 nM.

For B3, the “EC50 GLP-2 (nM); cAMP AlphaScreen” value amounted to 0.084 nM.

Consider B4, for which the “EC50 GLP-2 (nM); cAMP AlphaScreen” value is 0.076 nM.

Turning to B5, the “EC50 GLP-2 (nM); cAMP AlphaScreen” value was 0.085 nM.
